Patent US20220040234A1 (JUVENTAS CELL THERAPY, published 2022)

Biological target: T1, CD19 on the CD19-positive human leukemia cell line Nalm-6 (human, UniProt P15391 20-556)
T1 sequence (looked up): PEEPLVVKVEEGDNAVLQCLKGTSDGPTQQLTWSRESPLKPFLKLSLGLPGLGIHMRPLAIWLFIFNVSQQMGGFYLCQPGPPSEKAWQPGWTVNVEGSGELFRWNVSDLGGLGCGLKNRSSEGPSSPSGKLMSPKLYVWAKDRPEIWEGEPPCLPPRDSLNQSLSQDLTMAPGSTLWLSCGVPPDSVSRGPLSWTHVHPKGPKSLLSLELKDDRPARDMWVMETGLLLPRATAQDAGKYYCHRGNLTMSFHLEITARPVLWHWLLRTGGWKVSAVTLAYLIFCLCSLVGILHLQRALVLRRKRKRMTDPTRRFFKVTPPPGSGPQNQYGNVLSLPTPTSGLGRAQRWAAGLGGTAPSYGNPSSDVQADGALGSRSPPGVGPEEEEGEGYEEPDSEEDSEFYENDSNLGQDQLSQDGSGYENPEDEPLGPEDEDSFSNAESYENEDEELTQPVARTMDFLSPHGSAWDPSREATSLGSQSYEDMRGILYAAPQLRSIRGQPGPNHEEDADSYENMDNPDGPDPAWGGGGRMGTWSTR
Assay: cell-based or functional assay

B1: CD19-targeted chimeric antigen receptor (CAR) of SEQ ID NO. 1, expressed on the surface of CNCT19 cells (other)
chain: GSDIVLTQSPKFMSTSVGDRVSVTCKASQNVGTNVAWYQQKPGQSPKPLIYSATYRNSGVPDRFTGSGSGTDFTLTITNVQSKDLADYFCQQYNRYPYTSGGGTKLEIKRGGGGSGGGGSGGGGSQVQLQQSGAELVRPGSSVKISCKASGYAFSSYWMNWVKQRPGQGLEWIGQIYPGDGDTNYNGKFKGQATLTADKSSSTAYMQLSGLTSEDSAVYFCARKTISSVVDFYFDYWGQGTTLTVSSEFTTTPAPRPPTPAPTIASQPLSLRPEACRPAAGGAVHTRGLDFACDIYIWAPLAGTCGVLLLSLVITLYCKRGRKKLLYIFKQPFMRPVQTTQEEDGCSCRFPEEEEGGCELRVKFSRSADAPAYQQGQNQLYNELNLGRREEYDVLDKRRGRDPEMGGKPRRKNPQEGLYNELQKDKMAEAYSEIGMKGERRRGKGHDGLYQGLSTATKDTYDALHMQALPPR
IL-6 secreted by CNCT19 cells after 24 h co-culture with Nalm-6 target cells, effector/target ratio 2:1: 32.2 pg/mL | INF-γ secreted by CNCT19 cells after 24 h co-culture with Nalm-6 target cells, effector/target ratio 2:1: 6190 pg/mL | residual rate of target cells (Nalm-6) after 24 h co-culture with CNCT19 cells, effector/target ratio 1:2, flow cytometry: 2.8% | residual rate of target cells (Nalm-6) after 24 h co-culture with CNCT19 cells, effector/target ratio 2:1, flow cytometry: 1.1%
